Results from paper PMC4749569, “Atomic structure of the 26S proteasome lid reveals the mechanism of deubiquitinase inhibition” (eLife, 2016).

What was measured:
[1] = target: T1, Rpn9 (S. cerevisiae (yeast)) (UniProt Q04062)
T1 sequence: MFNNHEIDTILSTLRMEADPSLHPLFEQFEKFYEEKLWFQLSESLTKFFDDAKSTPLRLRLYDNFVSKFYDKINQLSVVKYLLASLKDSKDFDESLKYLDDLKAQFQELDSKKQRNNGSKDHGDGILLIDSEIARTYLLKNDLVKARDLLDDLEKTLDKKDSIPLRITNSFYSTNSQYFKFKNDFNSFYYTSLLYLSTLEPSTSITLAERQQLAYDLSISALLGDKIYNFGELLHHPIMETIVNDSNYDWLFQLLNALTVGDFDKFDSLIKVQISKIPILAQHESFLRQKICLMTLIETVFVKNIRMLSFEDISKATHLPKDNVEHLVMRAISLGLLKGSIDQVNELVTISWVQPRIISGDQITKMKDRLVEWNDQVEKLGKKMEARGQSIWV

[2] = target: Rpn11 (S. cerevisiae (yeast)) (UniProt P43588)
[3] = target: Rpn11 (S. cerevisiae (yeast)) (UniProt P43588); remark: listed apart in the source
Rpn11 = Rpn11 (S. cerevisiae (yeast), UniProt P43588 1-306); experiment: cell-based or functional assay
[4] = target: Rpn11 (S. cerevisiae (yeast)) (UniProt P43588); remark: listed apart in the source

Sequence of Rpn11 (S. cerevisiae (yeast)) (P43588 whole entry): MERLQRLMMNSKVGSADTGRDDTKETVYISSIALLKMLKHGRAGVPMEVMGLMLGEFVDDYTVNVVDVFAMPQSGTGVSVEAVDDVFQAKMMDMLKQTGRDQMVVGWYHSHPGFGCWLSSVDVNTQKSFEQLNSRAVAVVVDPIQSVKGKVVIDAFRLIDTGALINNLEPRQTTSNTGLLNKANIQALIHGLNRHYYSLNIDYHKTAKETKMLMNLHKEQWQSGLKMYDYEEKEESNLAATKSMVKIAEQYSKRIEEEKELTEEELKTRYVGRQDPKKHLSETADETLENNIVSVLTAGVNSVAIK
Sequence of Rpn11 (P43588 whole entry): as above

B1: Rpn8 (K86A,K88A) (natural protein)
chain: MSLQHEKVTIAPLVLLSALDHYERTQTKENKRCVGVILGDANSSTIRVTNSFALPFEEDEKNSDVWFLDHNYIENMNEMCKKINAAEALIGWYHSGPKLRASDLKINELFKKYTQNNPLLLIVDVKQQGVGLPTDAYVAIEQVKDDGTSTEKTFLHLPCTIEAEEAEEIGVEHLLRDVRDQAAGGLSIRLTNQLKSLKGLQSKLKDVVEYLDKVINKELPINHTILGKLQDVFNLLPNLGTPDDDEIDVENHDRINISNNLQKALTVKTNDELMVIYISNLVRSIIAFDDLIENKIQNKKIQEQRVKDKQSKVSDDSESESGDKEATAPLIQRKNKKN
Ub-AMC cleavage rate of Rpn11 in the isolated lid with this variant, relative to the isolated MPN heterodimer (% of the isolated MPN heterodimer) [1]: 60

B2: Rpn8 (K86A) (natural protein)
chain: MSLQHEKVTIAPLVLLSALDHYERTQTKENKRCVGVILGDANSSTIRVTNSFALPFEEDEKNSDVWFLDHNYIENMNEMCKKINAAEKLIGWYHSGPKLRASDLKINELFKKYTQNNPLLLIVDVKQQGVGLPTDAYVAIEQVKDDGTSTEKTFLHLPCTIEAEEAEEIGVEHLLRDVRDQAAGGLSIRLTNQLKSLKGLQSKLKDVVEYLDKVINKELPINHTILGKLQDVFNLLPNLGTPDDDEIDVENHDRINISNNLQKALTVKTNDELMVIYISNLVRSIIAFDDLIENKIQNKKIQEQRVKDKQSKVSDDSESESGDKEATAPLIQRKNKKN
Ub-AMC cleavage rate of Rpn11 in the isolated lid with this variant, relative to the free MPN heterodimer (% of the free MPN-heterodimer levels) [1]: 33

B3: Rpn8 (Q115A) (natural protein)
chain: MSLQHEKVTIAPLVLLSALDHYERTQTKENKRCVGVILGDANSSTIRVTNSFALPFEEDEKNSDVWFLDHNYIENMNEMCKKINAKEKLIGWYHSGPKLRASDLKINELFKKYTANNPLLLIVDVKQQGVGLPTDAYVAIEQVKDDGTSTEKTFLHLPCTIEAEEAEEIGVEHLLRDVRDQAAGGLSIRLTNQLKSLKGLQSKLKDVVEYLDKVINKELPINHTILGKLQDVFNLLPNLGTPDDDEIDVENHDRINISNNLQKALTVKTNDELMVIYISNLVRSIIAFDDLIENKIQNKKIQEQRVKDKQSKVSDDSESESGDKEATAPLIQRKNKKN
Ub-AMC cleavage rate of Rpn11 in the isolated lid with this variant, relative to the isolated MPN heterodimer (% of isolated MPN levels) [1]: 33

B4: Rpn8 (K88A) (natural protein)
chain: MSLQHEKVTIAPLVLLSALDHYERTQTKENKRCVGVILGDANSSTIRVTNSFALPFEEDEKNSDVWFLDHNYIENMNEMCKKINAKEALIGWYHSGPKLRASDLKINELFKKYTQNNPLLLIVDVKQQGVGLPTDAYVAIEQVKDDGTSTEKTFLHLPCTIEAEEAEEIGVEHLLRDVRDQAAGGLSIRLTNQLKSLKGLQSKLKDVVEYLDKVINKELPINHTILGKLQDVFNLLPNLGTPDDDEIDVENHDRINISNNLQKALTVKTNDELMVIYISNLVRSIIAFDDLIENKIQNKKIQEQRVKDKQSKVSDDSESESGDKEATAPLIQRKNKKN
Ub-AMC cleavage rate of Rpn11 in the isolated lid with this variant, relative to the free MPN heterodimer (% of the free MPN-heterodimer levels) [1]: 45

B5: Rpn5 (Y273A) (natural protein)
chain: MSRDAPIKADKDYSQILKEEFPKIDSLAQNDCNSALDQLLVLEKKTRQASDLASSKEVLAKIVDLLASRNKWDDLNEQLTLLSKKHGQLKLSIQYMIQKVMEYLKSSKSLDLNTRISVIETIRVVTENKIFVEVERARVTKDLVEIKKEEGKIDEAADILCELQVETYGSMEMSEKIQFILEQMELSILKGDYSQATVLSRKILKKTFKNPKYESLKLEYYNLLVKISLHKREYLEVAQYLQEIYQTDAIKSDEAKWKPVLSHIVYFLVLSPAGNLQNDLIHKIQNDNNLKKLESQESLVKLFTTNELMRWPIVQKTYEPVLNEDDLAFGGEANKHHWEDLQKRVIEHNLRVISEYYSRITLLRLNELLDLTESQTETYISDLVNQGIIYAKVNRPAKIVNFEKPKNSSQLLNEWSHNVDELLEHIETIGHLITKEEIMHGLQAK
Ub-AMC cleavage rate of Rpn11 in the isolated lid with this variant, relative to the isolated Rpn11/Rpn8 dimer (% of the isolated Rpn11/Rpn8 dimer) [2]: 61

B6: Rpn5 K283A (natural protein)
chain: MSRDAPIKADKDYSQILKEEFPKIDSLAQNDCNSALDQLLVLEKKTRQASDLASSKEVLAKIVDLLASRNKWDDLNEQLTLLSKKHGQLKLSIQYMIQKVMEYLKSSKSLDLNTRISVIETIRVVTENKIFVEVERARVTKDLVEIKKEEGKIDEAADILCELQVETYGSMEMSEKIQFILEQMELSILKGDYSQATVLSRKILKKTFKNPKYESLKLEYYNLLVKISLHKREYLEVAQYLQEIYQTDAIKSDEAKWKPVLSHIVYFLVLSPYGNLQNDLIHAIQNDNNLKKLESQESLVKLFTTNELMRWPIVQKTYEPVLNEDDLAFGGEANKHHWEDLQKRVIEHNLRVISEYYSRITLLRLNELLDLTESQTETYISDLVNQGIIYAKVNRPAKIVNFEKPKNSSQLLNEWSHNVDELLEHIETIGHLITKEEIMHGLQAK
Ub-AMC cleavage rate of Rpn11 in the isolated lid with this variant, relative to the free MPN heterodimer (% of the free MPN heterodimer) [3]: 41

B7: Rpn5 (H282A,K283A) (natural protein)
chain: MSRDAPIKADKDYSQILKEEFPKIDSLAQNDCNSALDQLLVLEKKTRQASDLASSKEVLAKIVDLLASRNKWDDLNEQLTLLSKKHGQLKLSIQYMIQKVMEYLKSSKSLDLNTRISVIETIRVVTENKIFVEVERARVTKDLVEIKKEEGKIDEAADILCELQVETYGSMEMSEKIQFILEQMELSILKGDYSQATVLSRKILKKTFKNPKYESLKLEYYNLLVKISLHKREYLEVAQYLQEIYQTDAIKSDEAKWKPVLSHIVYFLVLSPYGNLQNDLIAAIQNDNNLKKLESQESLVKLFTTNELMRWPIVQKTYEPVLNEDDLAFGGEANKHHWEDLQKRVIEHNLRVISEYYSRITLLRLNELLDLTESQTETYISDLVNQGIIYAKVNRPAKIVNFEKPKNSSQLLNEWSHNVDELLEHIETIGHLITKEEIMHGLQAK
Ub-AMC cleavage rate of Rpn11 in the isolated lid with this variant, relative to the free MPN heterodimer (% of the free MPN heterodimer) [3]: 51

B8: Rpn5 (natural protein, S. cerevisiae (yeast))
chain: MSRDAPIKADKDYSQILKEEFPKIDSLAQNDCNSALDQLLVLEKKTRQASDLASSKEVLAKIVDLLASRNKWDDLNEQLTLLSKKHGQLKLSIQYMIQKVMEYLKSSKSLDLNTRISVIETIRVVTENKIFVEVERARVTKDLVEIKKEEGKIDEAADILCELQVETYGSMEMSEKIQFILEQMELSILKGDYSQATVLSRKILKKTFKNPKYESLKLEYYNLLVKISLHKREYLEVAQYLQEIYQTDAIKSDEAKWKPVLSHIVYFLVLSPYGNLQNDLIHKIQNDNNLKKLESQESLVKLFTTNELMRWPIVQKTYEPVLNEDDLAFGGEANKHHWEDLQKRVIEHNLRVISEYYSRITLLRLNELLDLTESQTETYISDLVNQGIIYAKVNRPAKIVNFEKPKNSSQLLNEWSHNVDELLEHIETIGHLITKEEIMHGLQAK
Ub-AMC cleavage rate of Rpn11 in the isolated wild-type lid against the free Rpn11/Rpn8 dimer (500 nM enzyme, 2.5 μM Ubiquitin-AMC, 30°C, lid buffer) (Rpn11): 5 fold lower

B9: Rpn5 (H282A) (natural protein)
chain: MSRDAPIKADKDYSQILKEEFPKIDSLAQNDCNSALDQLLVLEKKTRQASDLASSKEVLAKIVDLLASRNKWDDLNEQLTLLSKKHGQLKLSIQYMIQKVMEYLKSSKSLDLNTRISVIETIRVVTENKIFVEVERARVTKDLVEIKKEEGKIDEAADILCELQVETYGSMEMSEKIQFILEQMELSILKGDYSQATVLSRKILKKTFKNPKYESLKLEYYNLLVKISLHKREYLEVAQYLQEIYQTDAIKSDEAKWKPVLSHIVYFLVLSPYGNLQNDLIAKIQNDNNLKKLESQESLVKLFTTNELMRWPIVQKTYEPVLNEDDLAFGGEANKHHWEDLQKRVIEHNLRVISEYYSRITLLRLNELLDLTESQTETYISDLVNQGIIYAKVNRPAKIVNFEKPKNSSQLLNEWSHNVDELLEHIETIGHLITKEEIMHGLQAK
Ub-AMC cleavage rate of Rpn11 in the isolated lid with this variant, relative to the free MPN heterodimer (% of the free MPN heterodimer) [3]: 31

B10: Rpn5 (N275A) (natural protein)
chain: MSRDAPIKADKDYSQILKEEFPKIDSLAQNDCNSALDQLLVLEKKTRQASDLASSKEVLAKIVDLLASRNKWDDLNEQLTLLSKKHGQLKLSIQYMIQKVMEYLKSSKSLDLNTRISVIETIRVVTENKIFVEVERARVTKDLVEIKKEEGKIDEAADILCELQVETYGSMEMSEKIQFILEQMELSILKGDYSQATVLSRKILKKTFKNPKYESLKLEYYNLLVKISLHKREYLEVAQYLQEIYQTDAIKSDEAKWKPVLSHIVYFLVLSPYGALQNDLIHKIQNDNNLKKLESQESLVKLFTTNELMRWPIVQKTYEPVLNEDDLAFGGEANKHHWEDLQKRVIEHNLRVISEYYSRITLLRLNELLDLTESQTETYISDLVNQGIIYAKVNRPAKIVNFEKPKNSSQLLNEWSHNVDELLEHIETIGHLITKEEIMHGLQAK
Ub-AMC cleavage rate of Rpn11 in the isolated lid with this variant, relative to the isolated MPN heterodimer (% of the isolated MPN heterodimer) [4]: 51
